# ± gives the standard deviation of the averaged measurements.
# Key:
# MCF7 = assay: percentage of EdU-negative (G0-arrested) nuclei per well, 72 h; higher = more G0 arrest; conditions: reference: sequence is the full UniProt precursor, the tested protein was the secreted form or ectodomain
# hTERT-HMEC = assay: as above; conditions: reference: sequence is the full UniProt precursor, the tested protein was the secreted form or ectodomain
# [1] = protein concentration 0.01392 µM
# [2] = protein concentration 0.1392 µM
# [3] = protein concentration 0.0225 µM
# [4] = protein concentration 0.014515 µM
# [5] = protein concentration 0.14515 µM
# [6] = protein concentration 0.02025 µM
# [7] = protein concentration 0.2025 µM
# 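Further: secreted proteins added to cultured cells, EdU pulse at the end, nuclei found by Hoechst imaging, EdU status from nuclear versus surrounding ring intensity ratio, PBS as neutral control.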
sequence,measurement,setting,value
MRLKNLTFIIILIISGELYAEEKPCGFPHVENGRIAQYYYTFKSFYFPMSIDKKLSFFCLAGYTTESGRQEEQTTCTTEGWSPEPRCFKKCTKPDLSNGYISDVKLLYKIQENMRYGCASGYKTTGGKDEEVVQCLSDGWSSQPTCRKEHETCLAPELYNGNYSTTQKTFKVKDKVQYECATGYYTAGGKKTEEVECLTYGWSLTPKCTKLKCSSLRLIENGYFHPVKQTYEEGDVVQFFCHENYYLSGSDLIQCYNFGWYPESPVCEGRRNRCPPPPLPINSKIQTHSTTYRHGEIVHIECELNFEIHGSAEIRCEDGKWTEPPKCIEGQEKVACEEPPFIENGAANLHSKIYYNGDKVTYACKSGYLLHGSNEITCNRGKWTLPPECVENNENCKHPPVVMNGAVADGILASYATGSSVEYRCNEYYLLRGSKISRCEQGKWSSPPVCLEPCTVNVDYMNRNNIEMKWKYEGKVLHGDLIDFVCKQGYDLSPLTPLSELSVQCNRGEVKYPLCTRKESKGMCTSPPLIKHGVIISSTVDTYENGSSVEYRCFDHHFLEGSREAYCLDGMWTTPPLCLEPCTLSFTEMEKNNLLLKWDFDNRPHILHGEYIEFICRGDTYPAELYITGSILRMQCDRGQLKYPRCIPRQSTLSYQEPLRT,percentage of EdU-negative,MCF7; [1],26.7 ± 0.98%
same,percentage of EdU-negative,MCF7; [2],25.4 ± 0.69%
same,percentage of EdU-negative,hTERT-HMEC; [1],5.59 ± 0.28%
same,percentage of EdU-negative,hTERT-HMEC; [2],7.25 ± 1.1%
MSSAARSRLTRATRQEMLFLALLLLPVVVAFARAEAEEDGDLQCLCVKTTSQVRPRHITSLEVIKAGPHCPTAQLIATLKNGRKICLDLQALLYKKIIKEHLES,percentage of EdU-negative,MCF7; [3],25.1 ± 0.73%
same,percentage of EdU-negative,MCF7; protein concentration 0.225 µM,24.9 ± 0.32%
same,percentage of EdU-negative,hTERT-HMEC; [3],5.03 ± 0.052%
same,percentage of EdU-negative,hTERT-HMEC; protein concentration 0.225 µM,5.8 ± 0.41%
MASRLTLLTLLLLLLAGDRASSNPNATSSSSQDPESLQDRGEGKVATTVISKMLFVEPILEVSSLPTTNSTTNSATKITANTTDEPTTQPTTEPTTQPTIQPTQPTTQLPTDSPTQPTTGSFCPGPVTLCSDLESHSTEAVLGDALVDFSLKLYHAFSAMKKVETNMAFSPFSIASLLTQVLLGAGENTKTNLESILSYPKDFTCVHQALKGFTTKGVTSVSQIFHSPDLAIRDTFVNASRTLYSSSPRVLSNNSDANLELINTWVAKNTNNKISRLLDSLPSDTRLVLLNAIYLSAKWKTTFDPKKTRMEPFHFKNSVIKVPMMNSKKYPVAHFIDQTLKAKVGQLQLSHNLSLVILVPQNLKHRLEDMEQALSPSVFKAIMEKLEMSKFQPTLLTLPRIKVTTSQDMLSIMEKLEFFDFSYDLNLCGLTEDPDLQVSAMQHQTVLELTETGVEAAAASAISVARTLLVFEVQQPFLFVLWDQQHKFPVFMGRVYDPRA,percentage of EdU-negative,MCF7; [4],25.6 ± 1.5%
same,percentage of EdU-negative,MCF7; [5],26 ± 0.75%
same,percentage of EdU-negative,hTERT-HMEC; [4],5.48 ± 0.2%
same,percentage of EdU-negative,hTERT-HMEC; [5],5.33 ± 0.56%
MVLAQGLLSMALLALCWERSLAGAEETIPLQTLRCYNDYTSHITCRWADTQDAQRLVNVTLIRRVNEDLLEPVSCDLSDDMPWSACPHPRCVPRRCVIPCQSFVVTDVDYFSFQPDRPLGTRLTVTLTQHVQPPEPRDLQISTDQDHFLLTWSVALGSPQSHWLSPGDLEFEVVYKRLQDSWEDAAILLSNTSQATLGPEHLMPSSTYVARVRTRLAPGSRLSGRPSKWSPEVCWDSQPGDEAQPQNLECFFDGAAVLSCSWEVRKEVASSVSFGLFYKPSPDAGEEECSPVLREGLGSLHTRHHCQIPVPDPATHGQYIVSVQPRRAEKHIKSSVNIQMAPPSLNVTKDGDSYSLRWETMKMRYEHIDHTFEIQYRKDTATWKDSKTETLQNAHSMALPALEPSTRYWARVRVRTSRTGYNGIWSEWSEARSWDTESVLPMWVLALIVIFLTIAVLLALRFCGIYGYRLRRKWEEKIPNPSKSHLFQNGSAELWPPGSMSAFTSGSPPHQGPWGSRFPELEGVFPVGFGDSEVSPLTIEDPKHVCDPPSGPDTTPAASDLPTEQPPSPQPGPPAASHTPEKQASSFDFNGPYLGPPHSRSLPDILGQPEPPQEGGSQKSPPPGSLEYLCLPAGGQVQLVPLAQAMGPGQAVEVERRPSQGAAGSPSLESGGGPAPPALGPRVGGQDQKDSPVAIPMSSGDTEDPGVASGYVSSADLVFTPNSGASSVSLVPSLGLPSDQTPSLCPGLASGPPGAPGPVKSGFEGYVELPPIEGRSPRSPRNNPVPPEAKSPVLNPGERPADVSPTSPQPEGLLVLQQVGDYCFLPGLGPGPLSLRSKPSSPGPGPEIKNLDQAFQVKKPPGQAVPQVPVIQLFKALKQQDYLSLPPWEVNKPGEVC,percentage of EdU-negative,MCF7; [3],23.9 ± 0.89%
same,percentage of EdU-negative,MCF7; protein concentration 0.225 µM,26.4 ± 2.5%
same,percentage of EdU-negative,hTERT-HMEC; [3],4.92 ± 0.4%
same,percentage of EdU-negative,hTERT-HMEC; protein concentration 0.225 µM,8.11 ± 1.6%
MRPLLLLALLGWLLLAEAKGDAKPEDNLLVLTVATKETEGFRRFKRSAQFFNYKIQALGLGEDWNVEKGTSAGGGQKVRLLKKALEKHADKEDLVILFADSYDVLFASGPRELLKKFRQARSQVVFSAEELIYPDRRLETKYPVVSDGKRFLGSGGFIGYAPNLSKLVAEWEGQDSDSDQLFYTKIFLDPEKREQINITLDHRCRIFQNLDGALDEVVLKFEMGHVRARNLAYDTLPVLIHGNGPTKLQLNYLGNYIPRFWTFETGCTVCDEGLRSLKGIGDEALPTVLVGVFIEQPTPFVSLFFQRLLRLHYPQKHMRLFIHNHEQHHKAQVEEFLAQHGSEYQSVKLVGPEVRMANADARNMGADLCRQDRSCTYYFSVDADVALTEPNSLRLLIQQNKNVIAPLMTRHGRLWSNFWGALSADGYYARSEDYVDIVQGRRVGVWNVPYISNIYLIKGSALRGELQSSDLFHHSKLDPDMAFCANIRQQDVFMFLTNRHTLGHLLSLDSYRTTHLHNDLWEVFSNPEDWKEKYIHQNYTKALAGKLVETPCPDVYWFPIFTEVACDELVEEMEHFGQWSLGNNKDNRIQGGYENVPTIDIHMNQIGFEREWHKFLLEYIAPMTEKLYPGYYTRAQFDLAFVVRYKPDEQPSLMPHHDASTFTINIALNRVGVDYEGGGCRFLRYNCSIRAPRKGWTLMHPGRLTHYHEGLPTTRGTRYIAVSFVDP,percentage of EdU-negative,MCF7; [6],27 ± 1.9%
same,percentage of EdU-negative,MCF7; [7],27.54 ± 0.046%
same,percentage of EdU-negative,hTERT-HMEC; [6],4.5 ± 0.15%
same,percentage of EdU-negative,hTERT-HMEC; [7],7.829 ± 0.054%

# From the supplement of paper PMC11316812
